Experimental data as given in IntAct's records for PubMed 18166655.

B1: Death-associated inhibitor of apoptosis 2 (Drosophila melanogaster (Fruit fly)), Q24307 (parent)
chain: MTELGMELESVRLATFGEWPLNAPVSAEDLVANGFFATGNWLEAECHFCHVRIDRWEYGDQVAERHRRSSPICSMVLAPNHCGNVPRSQESDNEGNSVVDSPESCSCPDLLLEANRLVTFKDWPNPNITPQALAKAGFYYLNRLDHVKCVWCNGVIAKWEKNDNAFEEHKRFFPQCPRVQMGPLIEFATGKNLDELGIQPTTLPLRPKYACVDARLRTFTDWPISNIQPASALAQAGLYYQKIGDQVRCFHCNIGLRSWQKEDEPWFEHAKWSPKCQFVLLAKGPAYVSEVLATTAANASSQPATAPAPTLQADVLMDEAPAKEALALGIDGGVVRNAIQRKLLSSGCAFSTLDELLHDIFDDAGAGAALEVREPPEPSAPFIEPCQATTSKAASVPIPVADSIPAKPQAAEAVANISKITDEIQKMSVATPNGNLSLEEENRQLKDARLCKVCLDEEVGVVFLPCGHLATCNQCAPSVANCPMCRADIKGFVRTFLS
partner: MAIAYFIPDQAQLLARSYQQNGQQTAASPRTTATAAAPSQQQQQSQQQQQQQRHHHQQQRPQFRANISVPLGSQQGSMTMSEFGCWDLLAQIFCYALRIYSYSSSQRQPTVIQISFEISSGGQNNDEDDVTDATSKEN
B2: Death-associated inhibitor of apoptosis 2 (Drosophila melanogaster (Fruit fly)), Q24307 (parent)
chain: B1 chain
partner: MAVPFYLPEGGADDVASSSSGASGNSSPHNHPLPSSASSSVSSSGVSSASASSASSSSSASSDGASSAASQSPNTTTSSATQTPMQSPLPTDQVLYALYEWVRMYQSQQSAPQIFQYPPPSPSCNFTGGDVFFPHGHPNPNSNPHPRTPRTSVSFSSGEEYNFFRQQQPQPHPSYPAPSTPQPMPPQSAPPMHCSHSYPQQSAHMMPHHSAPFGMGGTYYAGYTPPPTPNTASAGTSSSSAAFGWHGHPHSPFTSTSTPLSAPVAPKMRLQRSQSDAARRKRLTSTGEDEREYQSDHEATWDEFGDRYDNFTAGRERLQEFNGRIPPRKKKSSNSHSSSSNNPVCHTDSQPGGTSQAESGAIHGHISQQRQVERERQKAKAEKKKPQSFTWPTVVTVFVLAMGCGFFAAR

Variants of: B1
Settings: with grim_drome grim

**Q.** C249G was tested. Which “effect of a mutation on the interaction” value did it give?
**A.** Its value is “with no effect”.

**Q.** For C46G, which “effect of a mutation on the interaction” value is on record?
**A.** The value was “with no effect”.

**Q.** Which “effect of a mutation on the interaction” value does the source give for C149G;C249G here?
**A.** The value was “disrupting interaction strength”.

**Q.** For C149G, which “effect of a mutation on the interaction” value is on record?
**A.** The value was “decreasing interaction strength”.

Variants of: B2
Settings: with hid_drome hid

**Q.** With D100E as the variant, how does the “effect of a mutation on the interaction” value read?
**A.** Its value is “with no effect”.

Variants of: B2
Settings: with hid_drome hid
Remark: another data set of the same source

**Q.** For C149G, which “effect of a mutation on the interaction” value is on record?
**A.** The value was “with no effect”.

**Q.** Which “effect of a mutation on the interaction” value does the source give for C249G here?
**A.** The value was “with no effect”.

**Q.** C149G;C249G was tested. Which “effect of a mutation on the interaction” value did it give?
**A.** The value was “decreasing interaction strength”.
